According to patent publication US12435158:

What was measured:
Assay in all cases: SPR Biacore 8k, antibody captured
[1] = molecular target: lambda Bence Jones protein Lam893c
[2] = molecular target: lambda Bence Jones protein Lam134c
[3] = molecular target: lambda Bence Jones protein Lam885
[4] = molecular target: lambda free light chain Sigma
[5] = molecular target: lambda free light chain MyBio
[6] = molecular target: lambda Bence Jones protein Lam788a

B1: 10B3-VL1 (antibody, human IgG1, kappa, V domains shown)
VH: EVQLVESGGGLVKPGGSLRLSCAASGFTFSSYSMNWVRQAPGKGLEWVSFISSNRNYIYYADSVKGRFTISRDNAKNSLYLQMNSLRAEDTAVYYCASLANWGTYFDYWGQGTLVTVSS
VL: DIQMTQSPSSLSASVGDRVTITCRASQGISSWLAWYQQKPEKAPKSLIYAASSLQSGVPSRFSGSGSGTDFTLTISSLQPEDFATYYCRQYNSYPLTFGGGTKVEIRR
B1 gave a Kd [1] of 0.0401 nM, a Kd [2] of 0.0453 nM and a Kd [3] of 0.0707 nM. It also gave a Kd [4] of 0.522 nM, a Kd [5] of 0.0437 nM and a Kd [6] of 0.11 nM.
